Test results as given in patent US10357539B2, “Use of peptides that block metadherin-SND1 interaction as treatment for cancer” (THE TRUSTEES OF PRINCETON UNIVERSITY, priority 2014, dated 2019).
Residue numbers refer to the chain shown, from its start. Numbers in names are those of the source. Entries after “also recorded” stand apart in the source; their conditions may differ.

T1: SND1 (Homo sapiens, UniProt Q7KZF4)
T1 construct: Full-length HA-tagged SND1 was co-expressed with full-length Myc-tagged wild-type (WT) or mutant MTDH in HEK293T cells; expressed in transfected cells; host or cells: HEK293T
T1 sequence (Q7KZF4 1-910): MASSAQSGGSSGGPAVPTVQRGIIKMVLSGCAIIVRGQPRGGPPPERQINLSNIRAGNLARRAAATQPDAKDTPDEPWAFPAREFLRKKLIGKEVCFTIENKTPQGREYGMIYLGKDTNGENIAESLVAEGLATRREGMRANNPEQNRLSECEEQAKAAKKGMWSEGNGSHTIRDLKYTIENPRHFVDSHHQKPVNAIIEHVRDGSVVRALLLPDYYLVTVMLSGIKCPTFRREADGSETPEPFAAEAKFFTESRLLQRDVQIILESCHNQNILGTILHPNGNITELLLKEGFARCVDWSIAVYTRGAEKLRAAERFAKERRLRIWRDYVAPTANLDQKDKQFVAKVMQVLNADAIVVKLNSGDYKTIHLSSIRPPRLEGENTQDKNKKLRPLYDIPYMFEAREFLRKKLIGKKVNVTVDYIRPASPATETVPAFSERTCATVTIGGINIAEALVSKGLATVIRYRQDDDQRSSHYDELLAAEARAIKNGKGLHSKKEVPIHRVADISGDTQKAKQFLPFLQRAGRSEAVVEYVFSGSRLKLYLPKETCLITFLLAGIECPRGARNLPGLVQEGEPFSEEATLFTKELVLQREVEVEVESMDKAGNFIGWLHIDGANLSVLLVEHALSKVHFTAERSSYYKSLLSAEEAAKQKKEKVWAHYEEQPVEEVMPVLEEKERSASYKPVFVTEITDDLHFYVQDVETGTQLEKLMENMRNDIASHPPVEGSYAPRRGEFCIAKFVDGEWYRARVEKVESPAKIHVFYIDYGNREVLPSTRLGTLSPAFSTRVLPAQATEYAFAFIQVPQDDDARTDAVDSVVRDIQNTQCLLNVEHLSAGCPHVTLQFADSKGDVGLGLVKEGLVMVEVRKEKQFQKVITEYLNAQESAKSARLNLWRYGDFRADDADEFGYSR

T2: SND1 (Homo sapiens, UniProt Q7KZF4)
T2 construct: 15 μg of His-SND1 (16-339) was added to the resin; made in house; host or cells: E. coli DH5α
T2 sequence (Q7KZF4 16-339): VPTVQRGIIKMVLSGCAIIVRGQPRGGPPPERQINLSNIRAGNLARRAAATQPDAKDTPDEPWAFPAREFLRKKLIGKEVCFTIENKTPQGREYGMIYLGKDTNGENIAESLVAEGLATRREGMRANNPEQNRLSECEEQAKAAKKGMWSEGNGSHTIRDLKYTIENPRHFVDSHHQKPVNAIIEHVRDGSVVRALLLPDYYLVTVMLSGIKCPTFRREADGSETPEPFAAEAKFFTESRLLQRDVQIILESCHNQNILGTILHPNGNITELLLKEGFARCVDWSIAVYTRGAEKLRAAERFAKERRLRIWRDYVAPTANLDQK

B1: WT MTDH: full-length Myc-tagged wild-type human MTDH (protein, UniProt Q86UE4 1-582, looked up)
chain: MAARSWQDELAQQAEEGSARLREMLSVGLGFLRTELGLDLGLEPKRYPGWVILVGTGALGLLLLFLLGYGWAAACAGARKKRRSPPRKREEAAAVPAAAPDDLALLKNLRSEEQKKKNRKKLSEKPKPNGRTVEVAEGEAVRTPQSVTAKQPPEIDKKNEKSKKNKKKSKSDAKAVQNSSRHDGKEVDEGAWETKISHREKRQQRKRDKVLTDSGSLDSTIPGIENTITVTTEQLTTASFPVGSKKNKGDSHLNVQVSNFKSGKGDSTLQVSSGLNENLTVNGGGWNEKSVKLSSQISAGEEKWNSVSPASAGKRKTEPSAWSQDTGDANTNGKDWGRSWSDRSIFSGIGSTAEPVSQSTTSDYQWDVSRNQPYIDDEWSGLNGLSSADPNSDWNAPAEEWGNWVDEERASLLKSQEPIPDDQKVSDDDKEKGEGALPTGKSKKKKKKKKKQGEDNSTAQDTEELEKEIREDLPVNTSKTRPKQEKAFSLKTISTSDPAEVLVKNSQPIKTLPPATSTEPSVILSKSDSDKSSSQVPPILQETDKSKSNTKQNSVPPSQTKSETSWESPKQIKKKKKARRET
modifications: full-length Myc tag
B2: W394D: MTDH single point mutant W394D (protein, UniProt Q86UE4 1-582, looked up, variant W394D)
Protein LYRIC: B1 chain with W394D
B3: W401D: MTDH single point mutant W401D (protein, UniProt Q86UE4 1-582, looked up, variant W401D)
Protein LYRIC: B1 chain with W401D
B4: W394A: MTDH mutant W394A (protein, UniProt Q86UE4 1-582, looked up, variant W394A)
Protein LYRIC: B1 chain with W394A
B5: N395A: MTDH mutant N395A (protein)
chain: YQWDVSRNQPYIDDEWSGLNGLSSADPNSDWAAPAEEWGNWVDEERASLLKSQEPIPDDQKVSDDDKEKGEGALPTGKSKKKKKKKKKQGEDNSTAQDTEELEKEIREDLPVNTSKTRPKQEKAFSLKTISTSDPAEVLVKNSQPIKTLPPATSTEPSVILSKSDSDKSSSQVPPILQETDKSKSNTKQNSVPPSQTKSETSWESPKQIKKKKKARRET
modifications: left off: a dimerising Fc or GST
B6: E400A: MTDH mutant E400A (protein)
chain: B5 chain with A32N, E37A
modifications: left off: a dimerising Fc or GST
B7: E400R: MTDH single point mutant E400R (protein, listed as Homo sapiens)
chain: B1 chain with A78S, T317A, E400R
B8: N403A: MTDH mutant N403A (protein)
chain: B5 chain with A32N, N40A
modifications: left off: a dimerising Fc or GST

The molecules below were run against T1, SND1 (assay: Co-immunoprecipitation of full-length Myc-MTDH (WT or mutant) and HA-SND1 in HEK293T cells). Settings: HEK293T cell lysates, immunoprecipitation and immunoblot.
Type: cell-based
Excerpt: (§1) FIGS. 7A-E represents determination of key regions and residues mediating the MTDH-SND1 interaction. (FIG. 7A) Schematics of MTDH fragments and mutants with indicated SND1-binding capability. + indicates binding and − indicates no binding based on results shown below. Two putative nuclear localization signals are residues 432-451 for NLS2 and residues 561-580 for NLS3. In the enlarged view of the minimal binding region 386-407, 9 residues were targeted for mutagenesis in the current study. […] (FIG. 7B) Pulldown of His6-SND1AC by GST-tagged MTDH fragments with indicated boundaries. The bound proteins were examined by SDS-PAGE and visualized by Coomassie blue staining. (FIG. 7C) Pulldown of His6-SND1ΔC by GST-tagged WT or triple mutant MTDH fragments (364-582). For (FIG. 7B) and (FIG. 7C), 1/10 of the His6-SND1ΔC input was shown, and GST alone was used as a negative control. Representative results of 3 independent experiments are shown. (FIG. 7D, FIG. 7E) Lysates from HEK293T cells expressing the indicated ectopic human SND1, AGO2 or MTDH were immunoprecipitated with anti-Myc and immunoblotted with the indicated antibodies.
(§2) (FIG. 22A) In vitro pull-down of SND1 (16-339) by GST-tagged MTDH (364-582) harboring WT or mutant sequence. The proteins bound to GS4B were examined on SDS-PAGE and visualized by Coomassie blue staining. (FIG. 22B) In vitro pull-down of WT and mutant SND1 (16-339) by GST-tagged MTDH (364-582). The bound proteins were examined as in (FIG. 22A). For both (FIG. 22A) and (FIG. 22B), experiments were repeated three times; representative results are shown. The normalized percentage of binding was averaged from three experiments; mean±SEM was shown below the data. (FIG. 22C) HEK293T cells were transfected with human HA-SND1, WT Myc-MTDH or Myc-MTDH with indicated single point mutation. Lysates were immunoprecipitated with anti-Myc antibody and immunoblotted with the indicated antibodies. (FIG. 22D) HEK293T cells were transfected with human Myc-MTDH, WT HA-SND1 or mutant HA-SND1 with indicated single point mutations or deletions. Lysates were immunoprecipitated with anti-Myc and immunoblotted with the indicated antibodies.
Immunoprecipitation and western blot For immunoprecipitation (IP) experiments, cultured cells were washed in cold PBS and lysed in lysis buffer (20 mM Tris pH 7.4, 0.15 M NaCl, 1 mM EDTA, 1 mM EGTA, 1% Tx-100, 0.0025 M Na2P2O7, 1 mM α-glycerolphosphate, 1 mM Na3VO4, and 1 mM NaF) with an EDTA-free protease inhibitor mixture (Roche Applied Science) and PMSF. Cell lysates were then incubated on ice for 10 min, centrifuged, and precleared by incubating with protein A/G beads (Santa Cruz Biotechnology) for 1 h at 4° C. For IP bead preparation, 30 μl of protein A/G beads were incubated with 5 μg of antibodies for 2 h at 4° C. IPs were carried out for overnight at 4° C., and beads were centrifuged, washed and subsequently boiled for 5 min in SDS protein loading buffer to elute bound protein. IP lysates were subjected to western blotting with indicated antibodies.
Immunoprecipitation and western blot: For in vivo immunoprecipitation (IP) experiments, cultured cells were washed in cold PBS and lysed in lysis buffer (20 mM Tris pH 7.4, 0.15 M NaCl, 1 mM EDTA, 1 mM EGTA, 1% Tx-100, 0.0025 M Na2P2O7, 1 mM β-glycerolphosphate, 1 mM Na3VO4, and 1 mM NaF) with an EDTA-free protease inhibitor mixture (Roche Applied Science) and PMSF. Cell lysates were then incubated on ice for 10 min, centrifuged, and precleared by incubating with protein A/G beads (Santa Cruz Biotechnology) for 1 h at 4° C. For IP bead preparation, 30 μl of protein A/G beads were incubated with 5 μg of antibodies for 2 h at 4° C. IPs were carried out for overnight at 4° C., and beads were centrifuged, washed and subsequently boiled for 5 min in SDS protein loading buffer to elute bound protein. IP lysates were subjected to western blotting with indicated antibodies.

Row | Molecule | interaction of full-length MTDH (WT or mutant) with HA-SND1
1 | B1 | pulled down
2 | B2 | completely and not
3 | B3 | partially abolished the binding; also recorded: significantly reduced the binding; also recorded: strongly reduced the binding
4 | B4 | not

These molecules were tested against T2, SND1 (assay: GST-mediated pull-down of SND1 by GST-tagged MTDH fragments and mutants). Settings: SND1 (16-339); GST-tagged MTDH (364-582).
Type: binding
Excerpt: as §1, §2
GST-Mediated Pull-Down Assay: ˜20 μg of GST-MTDH (different truncation forms and site mutants) was bound to 10 μl of glutathione resin via GST tag. The resin was washed with 200 μl assay buffer (25 mM Tris, PH8.0, 150 mM NaCl, 3 mM DTT) three times to remove the excess unbound protein. 15 μg of His-SND1 (16-339) was added to the resin in a 100 μl volume suspended in the assay buffer with 2 mg/ml of BSA. The mixture was washed with 200 μl assay buffer twice before examined by SDS-PAGE, and visualized by Coomassie blue staining. The experiments were repeated 3 times and the ratio of SND1 associated with GST-MTDH was analyzed by ImageJ.

Row | Molecule | SND1-binding of MTDH (364-582) point mutants, in vitro
5 | B2 | abolished or significantly reduced the interaction
6 | B3 | abolished or significantly reduced the interaction
7 | B4 | abolished or significantly reduced the interaction
8 | B5 | barely had any effect
9 | B6 | barely had any effect
10 | B7 | barely had any effect
11 | B8 | barely had any effect
